Measurements: patent US7521047 (GPC BIOTECH, dated 2009)
Positions count from the first letter of the chain named.

T1: HLA-DR (DRA*0101/DRB1*0401) on PRIESS cells (human, UniProt P01903 26-254; P01911 30-266)
T1 MHC II alpha: not shown
T1 MHC II beta: not shown

T2: human MHC class II DR protein (DRA*0101/DRB1*0401), purified from PRIESS cells (human, UniProt P01903 26-254; P01911 30-266, limits assumed)
T2 construct: mature; also called HLA-DR protein; MHCII
T2 MHC II alpha: not shown
T2 MHC II beta: not shown

B1: MS-GPC-1 Fab (Fab, V domains shown)
VH: QVQLKESGPALVKPTQTLTLTCTFSGFSLSTSGVGVGWIRQPPGKALEWLALIDWDDDKYYSTSLKTRLTISKDTSKNQVVLTMTNMDPVDTATYYCARQYGHRGGFDHWGQGTLVTVSS
VL: DIVLTQPPSVSGAPGQRVTISCSGSSSNIGSNYVSWYQQLPGTAPKLLIYDNNQRPSGVPDRFSGSKSGTSASLAITGLQSEDEADYYCQSYDFNESVFGGGTKLTVLG
notes: Fab from pMx9_Fab: VH-CH1 with FLAG tag and STREP tag II, VL-CL; VH residue 1 is Q in Fab; also called 17-Fab; 17
B2: MS-GPC-8-27-41 Fab (Fab, V domains shown)
VH: B1 VH with Q100S, Y101P, G102R, H103Y, G106A, H109Y
VL: B1 VL with S26E, S31N, S35Q, F94M, E96V, S97H
notes: Fab: VH-CH1 with FLAG tag and STREP tag II, VL-CL; VH residue 1 is Q in Fab; also called 1D09C3
B3: MS-GPC-10 Fab (Fab, V domains shown)
VH: B1 VH with Y101L, G102H, H103Y, H109L
VL: B1 VL with F94L, N95T, E96M, S97G
notes: Fab from pMx9_Fab: VH-CH1 with FLAG tag and STREP tag II, VL-CL; VH residue 1 is Q in Fab; also called E6-Fab; E6

Tests used:
[1] = molecular target: T1, HLA-DR (DRA*0101/DRB1*0401) on PRIESS …; experiment: cell-based or functional assay
[2] = molecular target: T3, BSA (bovine, UniProt P02769 25-607); experiment: ELISA, coated antigen
T3 construct: negative control antigen; also called bovine serum albumine
T3 sequence (P02769 25-607 limits assumed): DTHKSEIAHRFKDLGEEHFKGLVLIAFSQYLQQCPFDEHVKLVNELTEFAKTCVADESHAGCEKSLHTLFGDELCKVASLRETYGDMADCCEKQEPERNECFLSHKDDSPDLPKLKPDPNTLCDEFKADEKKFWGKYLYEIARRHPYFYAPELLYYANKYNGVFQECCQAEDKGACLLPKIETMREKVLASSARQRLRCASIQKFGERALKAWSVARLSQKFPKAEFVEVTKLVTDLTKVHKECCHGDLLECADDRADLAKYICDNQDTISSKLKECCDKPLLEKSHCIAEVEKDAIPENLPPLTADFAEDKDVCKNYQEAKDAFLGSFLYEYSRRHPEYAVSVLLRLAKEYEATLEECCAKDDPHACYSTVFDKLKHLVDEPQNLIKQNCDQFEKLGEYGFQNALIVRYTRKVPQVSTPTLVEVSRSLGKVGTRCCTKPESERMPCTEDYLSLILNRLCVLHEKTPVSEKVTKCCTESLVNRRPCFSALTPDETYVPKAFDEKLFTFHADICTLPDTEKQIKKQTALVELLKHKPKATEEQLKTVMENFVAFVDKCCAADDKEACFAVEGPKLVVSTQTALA

[3] = molecular target: T2, human MHC class II DR protein …; experiment: SPR (BIAcore), Fab, chip density 500 RU MHCII
[4] = molecular target: HLA-DR on LG-2 cells (human); experiment: cell-based or functional assay
[5] = molecular target: T2, human MHC class II DR protein …; experiment: SPR (BIAcore), MHCII on CM5 chip
[6] = molecular target: T2, human MHC class II DR protein …; experiment: SPR (BIAcore), MHCII on CM5 chip
[7] = molecular target: chimeric 0401-IE class II molecule on cells of transgenic mice (human/murine chimera); experiment: cell-based or functional assay
[8] = molecular target: T2, human MHC class II DR protein …; experiment: ELISA, coated antigen, Fab 100 ng/well, read at 370 nm
Description: After washing in PBS the anti-human IgG F(ab')_2-peroxidase-conjugate at a 1:10,000 dilution in TBS (supplemented with 5% w/v non-fat drymilk/0.05% v/v Tween 20) was added to each well for 1 h. Final washes were carried out in PBS followed the addition the substrate POD (Roche).

[9] = molecular target: T2, human MHC class II DR protein …; experiment: BiaCore, Fab

Binder	EC50 of cell killing, cross-linked Fab, bivalent agent [1]	binding result [2]	Kd [3]	koff [3]	kon [3]	EC50 of cell killing, cross-linked Fab, bivalent agent [4]	Kd [5]	koff [5]	kon [5]	Kd [6]	koff [6]	kon [6]	IC50 of inhibition of IL-2 secretion from T-Hyb 1 cells [7]	Maximum inhibition(%) of IL-2 secretion [7]	ELISA signal [8]	Kd [9]	koff [9]	kon [9]
B1	54 nM	no binding	820 nM	0.053 s⁻¹	63900 M⁻¹ s⁻¹	–	–	–	–	–	–	–	–	–	–	–	–	–
B2	7.7 nM	–	–	–	–	7.2 nM	2.93 nM	0.00049 s⁻¹	167000 M⁻¹ s⁻¹	2.9 nM	0.00049 s⁻¹	170000 M⁻¹ s⁻¹	3.6 nM (half the concentration of the Fab)	100%	1.52	2.93 nM	0.00049 s⁻¹	167000 M⁻¹ s⁻¹
B3	33 nM	no binding	2860 nM	0.063 s⁻¹	22000 M⁻¹ s⁻¹	–	–	–	–	–	–	–	–	–	–	–	–	–
